From patent publication US20220332804A1 (CSL INNOVATION, published 2022)
Residue numbers refer to the chain shown, from its start.

Tests used:
human complement C2 = molecular target: T1, human complement C2 (human, UniProt P06681 21-752); assay: SPR, mAb captured, huC2 analyte, neutral pH; pH 7
T1 construct: Recombinant full-length human C2 with C-terminal 8x His tag, purified from Expi293F supernatant; also called human C2; huC2
T1 sequence: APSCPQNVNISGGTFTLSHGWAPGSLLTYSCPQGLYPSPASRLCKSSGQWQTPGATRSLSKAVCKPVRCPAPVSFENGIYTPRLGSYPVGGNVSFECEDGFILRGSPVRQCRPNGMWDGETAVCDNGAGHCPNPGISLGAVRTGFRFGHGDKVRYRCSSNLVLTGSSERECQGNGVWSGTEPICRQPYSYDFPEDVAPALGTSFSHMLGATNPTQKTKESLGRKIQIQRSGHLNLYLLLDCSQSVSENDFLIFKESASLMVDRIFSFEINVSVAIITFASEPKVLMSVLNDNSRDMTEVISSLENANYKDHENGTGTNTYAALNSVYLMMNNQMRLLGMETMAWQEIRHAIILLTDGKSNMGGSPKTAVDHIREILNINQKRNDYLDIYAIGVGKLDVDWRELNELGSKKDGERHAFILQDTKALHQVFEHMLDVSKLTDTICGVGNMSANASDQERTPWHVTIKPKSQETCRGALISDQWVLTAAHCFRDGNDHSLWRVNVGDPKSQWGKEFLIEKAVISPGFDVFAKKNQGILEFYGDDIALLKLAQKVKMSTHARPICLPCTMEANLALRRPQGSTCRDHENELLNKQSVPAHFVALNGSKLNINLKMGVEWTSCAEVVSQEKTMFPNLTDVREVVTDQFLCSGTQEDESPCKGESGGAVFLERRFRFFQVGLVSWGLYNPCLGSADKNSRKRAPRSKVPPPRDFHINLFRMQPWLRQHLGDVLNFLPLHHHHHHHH

human C2 S278A = molecular target: T2, human C2 S278A (human, UniProt P06681 21-752); assay: SPR, KD relative to WT C2;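 further: biacore SPR at 37 °C, anti-C2 mAbs captured on anti-human IgG chips with alanine or serine point mutants of C2 as analyte, KD from 1:1 fit compared with wild-type C2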
T2 sequence: T1 sequence with S258A

human C2 G677A = molecular target: T3, human C2 G677A (human, UniProt P06681 21-752); assay: SPR, KD relative to WT C2;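 further: biacore SPR at 37 °C, anti-C2 mAbs captured on anti-human IgG chips with alanine or serine point mutants of C2 as analyte, KD from 1:1 fit compared with wild-type C2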
T3 sequence: T1 sequence with G657A

human C2 K244A = molecular target: T4, human C2 K244A (human, UniProt P06681 21-752); assay: SPR, KD relative to WT C2;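 further: biacore SPR at 37 °C, anti-C2 mAbs captured on anti-human IgG chips with alanine or serine point mutants of C2 as analyte, KD from 1:1 fit compared with wild-type C2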
T4 sequence: T1 sequence with K224A

B1: RF16-226 (antibody)
heavy: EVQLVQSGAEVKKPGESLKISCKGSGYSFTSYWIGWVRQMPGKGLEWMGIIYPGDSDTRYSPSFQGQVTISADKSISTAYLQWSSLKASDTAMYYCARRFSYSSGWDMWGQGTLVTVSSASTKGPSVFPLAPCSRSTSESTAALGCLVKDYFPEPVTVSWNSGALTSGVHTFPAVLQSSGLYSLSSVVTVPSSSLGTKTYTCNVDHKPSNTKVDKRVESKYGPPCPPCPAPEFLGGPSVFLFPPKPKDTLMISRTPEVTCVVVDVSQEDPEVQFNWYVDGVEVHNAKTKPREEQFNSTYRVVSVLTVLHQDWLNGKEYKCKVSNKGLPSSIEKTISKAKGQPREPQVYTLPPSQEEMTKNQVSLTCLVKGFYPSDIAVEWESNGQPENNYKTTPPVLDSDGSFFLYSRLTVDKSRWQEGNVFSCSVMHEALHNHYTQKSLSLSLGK
light: SYELTQPPSVSVSPGQTARITCSGDALTSKYVAWYQQKSGLAPLLVIYEDTRRPSGIPAKFSGSSSGSVATLTISGAHGDDEADYYCYSTDASGHQRVFGGGTKLTVLSQPKAAPSVTLFPPSSEELQANKATLVCLISDFYPGAVTVAWKADGSPVKAGVETTKPSKQSNNKYAASSYLSLTPEQWKSHRSYSCQVTHEGSTVEKTVAPTECS
Human complement C2
  Kd: ~9 nM

B2: RF16-242 (antibody, human IgG4 S228P, lambda, V domains shown)
VH: EVQLLQSGAEVKKPGESLKISCKGSGYSFTSYWIGWVRQMPGKGLEWMGIIYPGDSDTRYSPSFQGQVTISADKSISTAYLQWSSLKASDTAMYYCARRGHYGDYFDYWGQGTLVTVSS
VL: SYELTQPPSVSVSPGQTARITCSGDALPKKYAYWYHQKSGQAPVLVIYEDRRRPSEIPERFSGSSSGTMATLTITGAQVEDEGVYFCYSRDRAGNQRVFGGGTQLTVLG
notes: pH-dependent anti-C2 antibody from a phage display library
Human C2 S278A
  Fold diff: 1 fold
Human C2 G677A
  Fold diff: 1 fold
Human C2 K244A
  Fold diff: 4 fold
